In patent US20220242962A1 (APTEVO RESEARCH AND DEVELOPMENT, published 2022):
Numbering of substitutions follows the chain as printed. Names and notes keep the numbering of the source. Values belong to the binder of their own block, whether it stands above or below them.

Legend:
Full-length Cyno 4-1BB = molecular target: T1, Full-length Cyno 4-1BB (cynomolgus monkey, UniProt Q07011 24-255 (human entry)); experiment: flow cytometry on Jurkat cells transfected with cynomolgus 4-1BB, goat anti-human Fc secondary antibody, MFI (Mean)
T1 construct: on Jurkat or CHO cells; also called FOB006; cynomolgus 4-1BB
T1 chain: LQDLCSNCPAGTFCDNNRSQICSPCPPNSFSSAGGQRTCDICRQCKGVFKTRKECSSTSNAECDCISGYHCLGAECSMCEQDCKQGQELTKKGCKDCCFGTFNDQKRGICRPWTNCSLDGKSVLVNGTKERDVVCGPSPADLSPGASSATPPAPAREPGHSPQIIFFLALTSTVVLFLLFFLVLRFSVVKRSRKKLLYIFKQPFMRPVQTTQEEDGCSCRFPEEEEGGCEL
Protocol: (§1) Serial dilutions of ADAPTIR™ constructs were incubated with transfected target cells and subsequently labelled with a fluorescently-conjugated goat-a-human Fc secondary antibody. […] (See Example 25.)

Full-length Human OX40 = molecular target: T2, Full-length Human OX40 (human, UniProt P43489 29-277); experiment: cell-based or functional assay
T2 sequence: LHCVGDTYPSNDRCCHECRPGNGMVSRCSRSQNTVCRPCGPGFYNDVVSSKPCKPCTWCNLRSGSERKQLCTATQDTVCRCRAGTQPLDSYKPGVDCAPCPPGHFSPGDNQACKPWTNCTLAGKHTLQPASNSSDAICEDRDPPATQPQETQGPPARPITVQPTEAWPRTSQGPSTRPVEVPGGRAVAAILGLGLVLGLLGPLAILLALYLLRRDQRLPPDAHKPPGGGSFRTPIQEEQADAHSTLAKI

Full-length Human 4-1BB = Full-length Human 4-1BB (human, UniProt Q07011 24-255); experiment: cell-based or functional assay
Full-length Cyno OX40 = molecular target: T3, Full-length Cyno OX40 (cynomolgus monkey, UniProt P43489 29-277 (human entry)); experiment: flow cytometry on CHOK1SV cells transfected with cynomolgus OX40, goat anti-human Fc secondary antibody, MFI (Mean)
T3 construct: on CHO-K1SV cells; also called OXF004; cynomolgus OX40
T3 chain: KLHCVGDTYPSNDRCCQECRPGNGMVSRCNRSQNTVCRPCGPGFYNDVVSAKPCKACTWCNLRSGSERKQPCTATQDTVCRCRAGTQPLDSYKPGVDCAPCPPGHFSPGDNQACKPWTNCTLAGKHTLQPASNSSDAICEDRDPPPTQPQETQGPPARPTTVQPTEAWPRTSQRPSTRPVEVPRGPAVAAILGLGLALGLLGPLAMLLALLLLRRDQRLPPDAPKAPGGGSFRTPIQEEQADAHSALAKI
Protocol: as §1

Cyno OX40-AFH = molecular target: T4, Cyno OX40-AFH (cynomolgus monkey); experiment: SPR (Biacore 8K), construct captured, monovalent ECD
T4 construct: entry includes the tags; also called OXF005; cyno OX40 ECD
T4 chain: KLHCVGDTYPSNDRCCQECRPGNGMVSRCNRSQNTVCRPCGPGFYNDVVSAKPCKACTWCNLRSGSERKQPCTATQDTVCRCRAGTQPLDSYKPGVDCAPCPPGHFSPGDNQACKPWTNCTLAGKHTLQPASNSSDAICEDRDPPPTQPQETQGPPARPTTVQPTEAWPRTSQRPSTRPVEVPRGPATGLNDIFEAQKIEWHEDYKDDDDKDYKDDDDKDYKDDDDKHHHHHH

Human 4-1BB ECD-AFH = molecular target: T5, Human 4-1BB ECD-AFH (human); experiment: as above
T5 construct: entry includes the tags; also called FOB003; HUMAN CD137 ECD-AVI-FLAG-HIS

Cyno 4-1BB ECD-AFH = molecular target: T6, Cyno 4-1BB ECD-AFH (cynomolgus monkey); experiment: as above
T6 construct: entry includes the tags; also called FOB004; Cyno CD137 ECD-avi-flag-his
T6 chain: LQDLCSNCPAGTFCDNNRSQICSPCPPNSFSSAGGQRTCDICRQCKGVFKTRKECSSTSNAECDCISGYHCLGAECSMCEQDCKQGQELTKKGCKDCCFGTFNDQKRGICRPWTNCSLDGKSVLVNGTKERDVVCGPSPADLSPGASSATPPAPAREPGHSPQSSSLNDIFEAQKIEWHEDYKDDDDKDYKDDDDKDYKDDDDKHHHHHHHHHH

Human OX40 ECD-AFH = molecular target: T7, Human OX40 ECD-AFH (human); experiment: as above
T7 construct: ECD'; entry includes the C-terminal tags; also called OXF003; Human OX40 ECD-avi-flag-his
T7 chain: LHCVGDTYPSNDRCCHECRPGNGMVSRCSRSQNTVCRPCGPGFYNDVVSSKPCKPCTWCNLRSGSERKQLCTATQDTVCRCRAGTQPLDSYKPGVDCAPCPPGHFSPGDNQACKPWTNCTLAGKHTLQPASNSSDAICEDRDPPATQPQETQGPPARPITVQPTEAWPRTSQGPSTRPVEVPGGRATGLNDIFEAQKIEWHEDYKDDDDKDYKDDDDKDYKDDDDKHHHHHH
Wherever 4-1BB Reporter Assay Max induction is given: unit not given here.
Wherever OX40 Reporter Assay Max induction is given: unit not given here.

Chain of Full-length Human 4-1BB (Q07011 24-255): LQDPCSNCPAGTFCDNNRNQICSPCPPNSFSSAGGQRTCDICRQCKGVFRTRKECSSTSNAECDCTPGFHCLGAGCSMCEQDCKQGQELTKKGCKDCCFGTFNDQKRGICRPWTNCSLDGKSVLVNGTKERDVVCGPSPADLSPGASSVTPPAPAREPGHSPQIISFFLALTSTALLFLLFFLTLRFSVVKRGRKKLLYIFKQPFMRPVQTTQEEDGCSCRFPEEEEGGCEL

- EC50 (read off the curve) (Full-length Cyno 4-1BB): ~0.4 nM
- OX40 Reporter Assay EC50 (Full-length Human OX40): 21 pM
- OX40 Reporter Assay Max induction (Full-length Human OX40): 5.86e+06
- 4-1BB Reporter Assay EC50 (Full-length Human 4-1BB): 17 pM
- 4-1BB Reporter Assay Max induction (Full-length Human 4-1BB): 1.37e+06
- EC50 (read off the curve) (Full-length Cyno OX40): ~2 nM
- Kd (Cyno OX40-AFH): < 1 nM
- koff (Cyno OX40-AFH): 0.00019 s⁻¹
- kon (Cyno OX40-AFH): 1.5e+06 M⁻¹ s⁻¹
- Kd (Human 4-1BB ECD-AFH): 16 nM
- koff (Human 4-1BB ECD-AFH): 0.0043 s⁻¹
- kon (Human 4-1BB ECD-AFH): 270000 M⁻¹ s⁻¹
- Kd (Cyno 4-1BB ECD-AFH): 92 nM
- koff (Cyno 4-1BB ECD-AFH): 0.0092 s⁻¹
- kon (Cyno 4-1BB ECD-AFH): 100000 M⁻¹ s⁻¹
- Kd (Human OX40 ECD-AFH): < 1 nM
- koff (Human OX40 ECD-AFH): 0.00027 s⁻¹
- kon (Human OX40 ECD-AFH): 1.1e+06 M⁻¹ s⁻¹
B1: FXX01066 (bispecific antibody)
chain: EVQLVQSGAEVKKPGASVKVSCKASGYTFTSYWMNWVRQAPGQGLEWMGNIYPSGGSTNYAQKFQGRVTMTVDTSTSTVYMELSSLRSEDTAVYYCASFSDGYYAYAMDYWGQGTLVTVSSGGGGSGGGGSGGGGSGGGGSEIVMTQSPATLSLSPGERATLSCRASQSVSSYLNWYQQKPGQAPRLLIYYASRRHTGIPARFSGSGSGTDFTLTISSLQPEDFAVYYCQQGYNLPYTFGQGTKVEIKEPKSSDKTHTCPPCPAPPAAAPSVFLFPPKPKDTLMISRTPEVTCVVVDVSHEDPEVKFNWYVDGVEVHNAKTKPREEQYNSTYRVVSVLTVLHQDWLNGKEYKCAVSNKALPAPIEKTISKAKGQPREPQVYTLPPSRDELTKNQVSLTCLVKGFYPSDIAVEWESNGQPENNYKTTPPVLDSDGSFFLYSKLTVDKSRWQQGNVFSCSVMHEALHNHYTQKSLSLSPGGGGSPSSYVLTQPPSVSVAPGQTARITCGGNNIGSKSVNWFQQKPGQAPVLVVYDDSGRPSGIPERFSGSTSGNTATLTISRVEAGDEADYYCQVWDSSSDHVVFGGGTKLTVLGGGGSGGGGSGGGGSGGGGSQVQLVESGGGVVQPGRSLRLSCAASGFTLSYYGMHWVRQAPGKGLEWVAAISHDGSDKYYADSVKGRFTISRDNSKNTLYLQMNSLRAEDTAVYYCSNDQFDPWGQGTLVTVSSR
notes: ADAPTIR scFv-Fc-scFv, anti-4-1BB (VH-VL) N-terminal, anti-OX40 C-terminal, PAA (del) Fc; also called FX01066

- EC50 (read off the curve) (Full-length Cyno 4-1BB): ~0.3 nM
- OX40 Reporter Assay EC50 (Full-length Human OX40): 17 pM
- OX40 Reporter Assay Max induction (Full-length Human OX40): 5.89e+06
- 4-1BB Reporter Assay EC50 (Full-length Human 4-1BB): 18 pM
- 4-1BB Reporter Assay Max induction (Full-length Human 4-1BB): 1.44e+06
- EC50 (read off the curve) (Full-length Cyno OX40): 1 to 2 nM
- Kd (Cyno OX40-AFH): < 1 nM
- koff (Cyno OX40-AFH): 0.00027 s⁻¹
- kon (Cyno OX40-AFH): 1.1e+06 M⁻¹ s⁻¹
- Kd (Human 4-1BB ECD-AFH): 17 nM
- koff (Human 4-1BB ECD-AFH): 0.0046 s⁻¹
- kon (Human 4-1BB ECD-AFH): 270000 M⁻¹ s⁻¹
- Kd (Cyno 4-1BB ECD-AFH): 76 nM
- koff (Cyno 4-1BB ECD-AFH): 0.0077 s⁻¹
- kon (Cyno 4-1BB ECD-AFH): 100000 M⁻¹ s⁻¹
- Kd (Human OX40 ECD-AFH): < 1 nM
- koff (Human OX40 ECD-AFH): 0.00029 s⁻¹
- kon (Human OX40 ECD-AFH): 980000 M⁻¹ s⁻¹
B2: FXX01101 (bispecific antibody)
chain: B1 chain with T690R
notes: ADAPTIR anti-4-1BB (HL) x anti-OX40 with T86R; PAA (del) Fc; also called FX01101

- EC50 (read off the curve) (Full-length Cyno 4-1BB): ~0.3 nM
- OX40 Reporter Assay EC50 (Full-length Human OX40): 12 pM
- OX40 Reporter Assay Max induction (Full-length Human OX40): 6.07e+06
- 4-1BB Reporter Assay EC50 (Full-length Human 4-1BB): 11 pM
- 4-1BB Reporter Assay Max induction (Full-length Human 4-1BB): 1.37e+06
- EC50 (read off the curve) (Full-length Cyno OX40): 1 to 2 nM
- Kd (Cyno OX40-AFH): 0.2 nM
- koff (Cyno OX40-AFH): 0.00023 s⁻¹
- kon (Cyno OX40-AFH): 1e+06 M⁻¹ s⁻¹
- Kd (Human 4-1BB ECD-AFH): 18 nM
- koff (Human 4-1BB ECD-AFH): 0.0046 s⁻¹
- kon (Human 4-1BB ECD-AFH): 260000 M⁻¹ s⁻¹
- Kd (Cyno 4-1BB ECD-AFH): 79 nM
- koff (Cyno 4-1BB ECD-AFH): 0.0075 s⁻¹
- kon (Cyno 4-1BB ECD-AFH): 95000 M⁻¹ s⁻¹
- Kd (Human OX40 ECD-AFH): 0.3 nM
- koff (Human OX40 ECD-AFH): 0.00031 s⁻¹
- kon (Human OX40 ECD-AFH): 920000 M⁻¹ s⁻¹
B3: FXX01119 (bispecific antibody)
chain: B1 chain with Q500K, I541V, E543N, T690R
notes: ADAPTIR anti-4-1BB x anti-OX40, pI variant; PAA (del) Fc
